Source: US20020035733A1 (AREXIS, published 2002)
Changes are numbered by the printed parent chain. In names and notes the source's numbering stands. Blank lines part the entries; values can stand above or below the binder they belong to.

Target: insulin (125I-insulin mixed with unlabeled insulin)
Assay: cell-based or functional assay

insulin degrading activity in intact COS-1 cells, percentage of wild type activity: 95 % of wild type activity
B1: rat insulin degradation enzyme (IDE) variant A890V (valine for alanine at amino acid 890) (enzyme)
chain: MRNGLVWLLHPALPSTLHSILGARPPPVKRLCGFPKQIYSTMNNPAIQRIEDHIVKSPEDKREYRGLELANGIKVLLISDPTTDKSSAALDVHIGSLSDPPNIPGLSHFCEHMLFLGTKKYPKENEYSQFLSEHAGSSNAFTSGEHTNYYFDVSHEHLEGALDRFAQFFLCPLFDASCKDREVNAVDSEHEKNVMNDAWRLFQLEKATGNPKHPFSKFGTGNKYTLETRPNQEGIDVREELLKFHSTYYSSNLMAICVLGRESLDDLTNLVVKLFSEVENKNVPLPEFPEHPFQEEHLKQLYKIVPIKDIRNLYVTFPIPDLQQYYKSNPGHYLGHLIGHEGPGSLLSELKSKGWVNTLVGGQKEGARGFMFFIINVDLTEEGLLHVEDIILHMFQYIQKLRAEGPQEWVFQECKDLNAVAFRFKDKERPRGYTSKIAGKLHYYPLNGVLTAEYLLEEFRPDLIDMVLDKLRPENVRVAIVSKSFEGKTDRTEQWYGTQYKQEAIPEDVIQKWQNADLNGKFKLPTKNEFIPTNFEILALEKDATPYPALIKDTAMSKLWFKQDDKFFLPKACLNFEFFSPFAYVDPLHCNMAYLYLELLKDSLNEYAYAAELAGLSYDLQNTIYGMYLSVKGYNDKQPILLKKITEKMATFEIDKKRFEIIKEAYMRSLNNFRAEQPHQHAMYYLRLLMTEVAWTKDELKEALDDVTLPRLKAFIPQLLSRLHIEALLHGNITKQAALGVMQMVEDTLIEHAHTKPLLPSQLVRYREVQLPDRGWFVYQRRNEVHNNCGIEIYYQTDMQSTSENMFLELFCQIISEPCFNTLRTKEQLGYIVFSGPRRANGIQGLRFIIQSEKPPHYLESRVEAFLITMEKAIEDMTEEAFQKHIQALVIRRLDKPKKLSAECAKYWGEIISQQYNYDRDNIEVAYLKTLSKDDIIKFYKEMLAVDAPRRHKVSVHVLAREMDSCPVVGEFPSQNDINLSEAPPLPQPEVIHNMTEFKRGLPLFPLVKPHINFMAAKL

insulin degrading activity in intact COS-1 cells, percentage of wild type activity: 69 % of wild type activity
B2: rat insulin degradation enzyme (IDE), GK allele containing both H18R and A890V (enzyme)
chain: B1 chain with H18R

insulin degrading activity in intact COS-1 cells, percentage of wild type activity: 89 % of wild type activity
B3: rat insulin degradation enzyme (IDE) variant H18R (arginine for histidine at amino acid 18) (enzyme)
chain: B1 chain with H18R, V890A
